# Measurements reported in US20100204445A1.
# Ends that are not written are not given here.
# Experiments:
# [1] = molecular target: recombinant cohesin (CipA of Clostridium josui, BAA32429) (Clostridium josui); assay: SPR (Biacore T-100), same format, 5 mM EGTA in running buffer
# [2] = molecular target: recombinant cohesin (CipA of Clostridium josui, BAA32429) (Clostridium josui); assay: batch elution of N-terminal fusion from cohesin carrier with 5 mM EGTA at 4 C, SDS-PAGE densitometry, 360 min set to 100
# [3] = molecular target: recombinant cohesin (CipA of Clostridium josui, BAA32429) (Clostridium josui); assay: SPR (Biacore T-100), fusion captured via anti-JNK3 antibody on Protein A chip, cohesin as analyte, +Ca2+ (1 mM CaCl2), no EGTA
# [4] = molecular target: recombinant cohesin (CipA of Clostridium josui, BAA32429) (Clostridium josui); assay: batch elution of C-terminal fusion from cohesin carrier with 5 mM EGTA at 4 C, SDS-PAGE densitometry, 360 min set to 100
# [5] = molecular target: recombinant cohesin (CipA of Clostridium josui, BAA32429) (Clostridium josui); assay: SPR as in Example 7, under the action of a chelating agent
Binder,Kd [1] [nM],koff [1] [s⁻¹],kon [1] [M⁻¹ s⁻¹],rate of eluted recombinant protein (%) at 5 min [2] [%],rate of eluted recombinant protein (%) at 30 min [2] [%],rate of eluted recombinant protein (%) at 60 min [2] [%],rate of eluted recombinant protein (%) at 360 min [2] [%],Kd [3] [nM],koff [3] [s⁻¹],kon [3] [M⁻¹ s⁻¹],rate of eluted recombinant protein (%) at 5 min [4] [%],rate of eluted recombinant protein (%) at 30 min [4] [%],rate of eluted recombinant protein (%) at 60 min [4] [%],rate of eluted recombinant protein (%) at 360 min [4] [%],Kd [5] [nM]
"recombinant JNK3 of which a wild-type dockerin was fused at the N-terminal (protein, not shown: large carriers; small tags and cut ends, not fully specified (C-terminus)) MGLKGDVNNDGAIDALDIAALKKAILTQSTSNINLTNADMNNDGNIDAIDFAQLKVKLLN",3.9,0.0079,2e+06,11.5,28.8,39.6,100,6.5,0.0053,810000,–,–,–,–,–
"recombinant JNK3 with an I49T-substituted dockerin polypeptide fused at the C-terminal (protein, not shown: large carriers; small tags and cut ends) MGLKGDVNNDGAIDALDIAALKKAILTQSTSNINLTNADMNNDGNIDATDFAQLKVKLLN",–,–,–,–,–,–,–,–,–,–,83.1,100,100,100,–
"recombinant JNK3 of which an L16T/I49T-substituted dockerin polypeptide is fused at the N-terminal (protein, not shown: large carriers; small tags and cut ends) MGLKGDVNNDGAIDATDIAALKKAILTQSTSNINLTNADMNNDGNIDATDFAQLKVKLLN",12,0.029,250000,55.2,100,100,100,3.2,0.015,4.9e+06,–,–,–,–,–
"recombinant JNK3 of which a wild-type dockerin was fused at the C-terminal (protein, not shown: large carriers; small tags and cut ends) MGLKGDVNNDGAIDALDIAALKKAILTQSTSNINLTNADMNNDGNIDAIDFAQLKVKLLN",–,–,–,–,–,–,–,–,–,–,1.5,10.5,20.9,100,–
"recombinant JNK3 of which an I49N-substituted dockerin polypeptide was fused at the N-terminal (protein, not shown: large carriers; small tags and cut ends) MGLKGDVNNDGAIDALDIAALKKAILTQSTSNINLTNADMNNDGNIDANDFAQLKVKLLN",56,0.089,1.6e+06,65.9,94.1,100,100,3.7,0.005,1.3e+06,–,–,–,–,–
"recombinant JNK3 of which an I49V-substituted dockerin polypeptide is fused at the N-terminal (protein, not shown: large carriers; small tags and cut ends) MGLKGDVNNDGAIDALDIAALKKAILTQSTSNINLTNADMNNDGNIDAVDFAQLKVKLLN",8.1,0.011,1.4e+06,25.3,53.3,68.2,100,7.6,0.0033,430000,–,–,–,–,–
"recombinant JNK3 of which an L16T/I49T-substituted dockerin polypeptide was fused at the C-terminal (protein, not shown: large carriers; small tags and cut ends) MGLKGDVNNDGAIDATDIAALKKAILTQSTSNINLTNADMNNDGNIDATDFAQLKVKLLN",–,–,–,–,–,–,–,–,–,–,55.7,100,100,100,–
"recombinant JNK3 of which an I49G-substituted dockerin polypeptide is fused at the N-terminal (protein, not shown: large carriers; small tags and cut ends) MGLKGDVNNDGAIDALDIAALKKAILTQSTSNINLTNADMNNDGNIDAGDFAQLKVKLLN",170,0.05,300000,100,100,100,100,2.2,0.0066,3e+06,–,–,–,–,–
"recombinant JNK3 of which an I49S-substituted dockerin polypeptide is fused at the N-terminal (protein, not shown: large carriers; small tags and cut ends) MGLKGDVNNDGAIDALDIAALKKAILTQSTSNINLTNADMNNDGNIDASDFAQLKVKLLN",67,0.048,710000,74.7,100,100,100,4.5,0.0045,1e+06,–,–,–,–,–
"recombinant JNK3 of which an I49T-substituted dockerin polypeptide is fused at the N-terminal (protein, not shown: large carriers; small tags and cut ends) MGLKGDVNNDGAIDALDIAALKKAILTQSTSNINLTNADMNNDGNIDATDFAQLKVKLLN",19,0.023,1.2e+06,66.5,100,100,100,3.8,0.006,1.6e+06,–,–,–,–,–
"recombinant fused protein in which a dockerin polypeptide with the 48th amino acid alanine (A) substituted with serine (S) was fused at the N-terminal of … (protein, not shown: large carriers; small tags and cut ends, not fully specified (C-terminus)) MGLKGDVNNDGAIDALDIAALKKAILTQSTSNINLTNADMNNDGNIDSIDFAQLKVKLLN",–,–,–,–,–,–,–,–,–,–,–,–,–,–,5.2
